Here are results for one molecule from PMC2853223 (ACS chemical biology, 2009).

This experiment is described as follows: SPR affinity of His-tagged PikAIII ACPdd for nickel-NTA sensor chip. The experiment is classed as binding. The following applies: BIAcore 3000, nickel-loaded NTA sensor chip, HBS-P+E pH 7.4. In general terms: SPR reads the build-up and loss of mass on a sensor chip optically.

B1: His-tagged PikAIII ACPdd: C-terminal (ACP-side) docking domain of PikAIII, pikromycin PKS (protein)
chain: LAPAEPAPTDWEGRVRRALAELPLDRLRDAGVLDTVLRLTGIEPEPGSGGSDGGAADPGAEPEASIDDLDAEALIRMALGPRNT
modifications: left off: His6, N-terminal, kept
By Kd is commonly meant the equilibrium constant for the complex coming apart. Low readings indicate tighter binding, high ones weaker binding. With B1, the dissociation constant Kd turned out to be 4 ± 0.04 nM.
